{
  "source": "patent US20220340905",
  "about": "“NUCLEIC ACID APTAMER SPECIFICALLY RECOGNIZING B-LACTOGLOBULIN AND USE THEREOF” (JIANGNAN UNIVERSITY, published 2022)",
  "binders": {"B1": {"name": "Lg-18 (ssDNA)", "DNA": "AGCAGCACAGAGGTCAGATGTTCGGCCTTTGCGTTAACGAACTTCTAGCTATGCGGCGTACCTATGCGTGCTACCGTGAA"}, "B2": {"name": "Lg-16 (ssDNA)", "DNA": "AGCAGCACAGAGGTCAGATGTCGTTTGTGGCTGTCAATTGGTGTGTTTACCTGTTTTGGCCTATGCGTGCTACCGTGAA"}, "B3": {"name": "Lg-9 (ssDNA)", "DNA": "AGCAGCACAGAGGTCAGATGGTTTTGTTGGGTCTGCTACGGACTTTGTTGACCTTTGCTCCCTATGCGTGCTACCGTGAA"}},
  "key": {"beta-lactoglobulin [1]": {"biological_target": "T1, beta-lactoglobulin (UniProt P02754 P02754:17-178)", "T1 sequence": "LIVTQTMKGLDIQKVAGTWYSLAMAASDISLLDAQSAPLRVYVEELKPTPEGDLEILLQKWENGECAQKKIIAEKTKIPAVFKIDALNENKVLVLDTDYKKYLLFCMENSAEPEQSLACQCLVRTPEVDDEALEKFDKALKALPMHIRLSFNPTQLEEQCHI", "assay": "magnetic bead strand-displacement fluorescence assay, 37 C; aptamer hybridised to biotinylated short chain, released by 50 ug/mL protein; ITC in 10 mM Tris-HCl", "conditions": "label: 5'-FAM (fluorescence assay); stem-loop (Mfold predicted)", "protocol": "(§1) Various concentrations (10 nM, 25 nM, 50 nM, 75 nM, 100 nM, 150 nM, 200 nM, and 300 nM) of the aptamer were respectively mixed with the biotinylated complementary short chain at a molar ratio of 1:1.5, denatured at 95° C. for 10 min, and slowly cooled to 37° C. for 3 h until the two were fully hybridized. The mixture was reacted with a certain amount of streptavidin-coupled magnetic beads (where the weight ratio of the aptamer to the magnetic beads was 1:400) at 37° C. and 200 rpm for 2 h to immobilize the aptamer on the magnetic beads by the strong binding between the biotin and streptavidin. The immobilized magnetic beads were incubated with 50 μg/mL β-lactoglobulin in a 300 μL system at 37° C. and 200 rpm. After magnetic separation, the supernatant was subjected to fluorescence measurement at an excitation wavelength of 485 nm and an emission wavelength of 522 nm. The relative fluorescence intensity at various aptamer concentrations was nonlinearly fitted by GraphPad prism 5.0 software, and the dissociation constant Kd of the aptamer was calculated (see Table 1). […] The homologous sequences (Lg-9 and Lg-16) of the aptamer Lg-18 also have good ability of binding to β-lactoglobulin."}, "[2]": {"biological_target": "BSA (bovine serum albumin) (Bos taurus, UniProt P02769 P02769:25-607)", "sequence (P02769 25-607, one chain of several)": "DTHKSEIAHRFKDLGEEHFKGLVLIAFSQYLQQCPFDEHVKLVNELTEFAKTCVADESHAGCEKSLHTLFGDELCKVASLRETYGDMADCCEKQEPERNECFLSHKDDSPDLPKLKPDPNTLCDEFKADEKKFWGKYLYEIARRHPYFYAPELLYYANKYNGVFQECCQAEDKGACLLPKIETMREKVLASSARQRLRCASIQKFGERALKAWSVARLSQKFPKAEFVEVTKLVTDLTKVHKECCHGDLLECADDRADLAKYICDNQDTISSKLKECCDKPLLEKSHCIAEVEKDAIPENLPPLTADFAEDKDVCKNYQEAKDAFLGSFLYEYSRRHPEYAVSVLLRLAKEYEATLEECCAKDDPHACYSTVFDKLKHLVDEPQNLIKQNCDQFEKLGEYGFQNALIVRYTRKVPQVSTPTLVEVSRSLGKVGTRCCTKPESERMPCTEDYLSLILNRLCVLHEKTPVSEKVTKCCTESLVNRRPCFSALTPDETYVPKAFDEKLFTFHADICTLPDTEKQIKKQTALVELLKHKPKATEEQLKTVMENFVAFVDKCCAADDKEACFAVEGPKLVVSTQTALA", "assay": "specificity control, 50 ug/mL protein, 200 nM aptamer on magnetic beads; text states good specificity, values only in figure", "conditions": "label: 5'-FAM (fluorescence assay); stem-loop (Mfold predicted)", "protocol": "(§2) Various concentrations (10 nM, 25 nM, 50 nM, 75 nM, 100 nM, 150 nM, 200 nM, and 300 nM) of the aptamer were respectively mixed with the biotinylated complementary short chain at a molar ratio of 1:1.5, denatured at 95° C. for 10 min, and slowly cooled to 37° C. for 3 h until the two were fully hybridized. The mixture was reacted with a certain amount of streptavidin-coupled magnetic beads (where the weight ratio of the aptamer to the magnetic beads was 1:400) at 37° C. and 200 rpm for 2 h to immobilize the aptamer on the magnetic beads by the strong binding between the biotin and streptavidin. The immobilized magnetic beads were incubated with 50 μg/mL β-lactoglobulin in a 300 μL system at 37° C. and 200 rpm. After magnetic separation, the supernatant was subjected to fluorescence measurement at an excitation wavelength of 485 nm and an emission wavelength of 522 nm. The relative fluorescence intensity at various aptamer concentrations was nonlinearly fitted by GraphPad prism 5.0 software, and the dissociation constant Kd of the aptamer was calculated (see Table 1). […]\n(§3) The specificity of the aptamer (Lg-18) was evaluated by the same method. […] After magnetic separation, the fluorescence intensity of the supernatant was measured respectively, and then the specificity of the aptamer was evaluated."}, "alpha-lactalbumin": {"biological_target": "T2, alpha-lactalbumin (UniProt P00711 P00711:20-142)", "T2 sequence": "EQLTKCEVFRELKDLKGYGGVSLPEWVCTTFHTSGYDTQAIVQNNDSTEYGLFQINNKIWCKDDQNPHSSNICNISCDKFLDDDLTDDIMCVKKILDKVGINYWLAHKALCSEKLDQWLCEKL", "assay": "specificity control, 50 ug/mL protein, 200 nM aptamer on magnetic beads; text states good specificity, values only in figure", "conditions": "label: 5'-FAM (fluorescence assay); stem-loop (Mfold predicted)", "protocol": "as §2, §3"}, "beta-lactoglobulin [3]": {"biological_target": "T1, beta-lactoglobulin", "assay": "magnetic bead strand-displacement fluorescence assay, 37 C", "conditions": "label: 5'-FAM (fluorescence assay)", "protocol": "as §1"}},
  "data": [
    {"binder": "B1", "values": [
      {"measurement": "Kd", "setting": "beta-lactoglobulin [1]", "value": 65, "unit": "nM"},
      {"measurement": "binding result", "setting": "[2]", "value": "no binding"},
      {"measurement": "binding result", "setting": "alpha-lactalbumin", "value": "no binding"}
    ]},
    {"binder": "B2", "values": [
      {"measurement": "Kd", "setting": "beta-lactoglobulin [3]", "value": 65.8, "unit": "nM"}
    ]},
    {"binder": "B3", "values": [
      {"measurement": "Kd", "setting": "beta-lactoglobulin [3]", "value": 71.8, "unit": "nM"}
    ]}
  ]
}
